Measurements taken from the DeepSol protein solubility set.

Experiment: soluble on expression in E. coli; label from the status in PepcDB or PDB records

Row | Sequence | soluble on expression in E. coli
1 | AHHHHHHGSGLFDKLKKAEVQKKVPSSLKSRIKEEPSEVELVPVEEEVLAKELVKPKVVYIKKIVISTHADLKRVSDELKSGNIVIVELTPLEQKPELLKKIAEQLMTTASIIGGDYAKICGSPLKVILTPPEIKIAKE | not soluble
2 | AHHHHHHGSIIIYTTFPTWESAEKVTKALLEERLVACANLREHKAFYWWQGKIEEDNEIGVILKTREDLWEEVKKRIKELHPYTVPAIIKINVEDVNEEYLKWLLEETKST | not soluble
3 | AHHHHHHGSITRGRVWKFGDNISTDAITPGRYNLTKDPNELAKIAFIEERPEFSKEVKPGDVVVGGKNFGIGSSRESAALALKAAGVGGVIAKSFGRIFFRNAVNLGLPLLIGNTDPLLDGEIVEVNWRSGEVKKEDGEVLKFKPLDSFLLAIVEEGGIIEYIRRRGDLWIQ | soluble
4 | AHHHHHHGSKEIVERVKTKTKIPVYERSVENVLSAVLASDDIWRIVDLSEEPLPLVVAILESLNELGYVTFEDGVKLTEKGEELVAEYGIGKRYDFTCPHCQGKTVDLQAFADLLEQFREIVKDRPEPLHEFDQAYVTPETTVARVILMHTRGDLENKDIFVLGDDDLTSIALMLSGLPKRIAVLDIDERLTKFIEKAANEIGYEDIEIFTFDLRKPLPDYALHKFDTFITDPPETLEAIRAFVGRGIATLKGPRCAGYFGITRRESSLDKWREIQKLLLNEFNVVITDIIRNFNEYVNWGYAEETRAWKLIPIKKLPEYNWYKSYMFRIETLEGSRGYEDEIPEEDIYNDEESSTT | soluble
5 | AHHHHHHGSKFNEFKTPQIDPIFDLYVAYGYVESLIRGGAKEATLIPHGASYLIQTDVSNEEFRHGLVDALSEMLSLHIALARHSPREGGKLVSDADFSAGANINNVYWDSVPRNLEKVMKDLEKKRSVKGTATIPITLMPSAGKYMLKHFGVQGGNPIKVDLLNYALAWVGFHYYTPYIKYAKGDTTWIHIYQIAPVEEVDMISILSLKDLKMHLPHYYESNLDFLINRRLALLYHLLHSESLGALELFTEKEFVIHSYTLERSGNNQAIRSFEEEEIGKLMDFLWKLKRRDFYHAIKFIDDLLKKATEGALALIDAIMNERLEGFYTALKLGKKAGVVSSREIVAALEDIICER | not soluble
6 | AHHHHHHGSKVEKGDVIRLHYTGKVKETGEIFDTTYEDVAKEARIYNPNGIYGPVPIAVGAGHVLPGLDKRLIGLEVKKKYVIEVPPEEGFGLRDPGKIKIIPLGKFRKSGIIPYPGLEIEVETENGRKMRGRVLTVSGGRVRVDFNHPLAGKTLVYEVEVVEKIEDPIEKIKALIELRLPMIDKDKVIIEISEKDVKLNFKDVDIDPKTLILGEILLESDLKFIGYEKVEFEPTIEELLKPKSAEEQESPNEEQQEESESKAEES | not soluble
7 | AHHHHHHGSLGRLARWLRLYGYDTLYGIEDDNEILRIAEEEGRIILTRDVELYRQAQVRNLRAILITSNSFEEQVKQLMMERVEFSELFPENARCPKCNGVIRSAKKEEVKGKVPENVYNSYNEFYICTSCGQIYWPGRQWREMLKMDKKIKANKL | soluble
8 | AHHHHHHGSPVYEINGIKPKIHPTAYVDENAVIIGDVVLEEKTSVWPSAVLRGDIERIYVGKYSNIQDNVSIHTSHGYPTEIGEYVTIGHNAVVHGAKIGNYVIIGMGAIILDGAKIGNHVIIGAGALVPPNKEIPDYSLVIGVPGKVVRQLSEEEIEWTKKNAEVYVELAEKHMKGRKKIMIYRIISHIPSIFFKPAYDLYERYLLEKVKAGVIPKHVAIIMDGNRRWARKREKPPWYGHFFGSKKLEEIVEWCHELGIRILTVYAFSTENFKRSKEEVDRLMKLFEEKFRELVTDRRVHEYGIRVNVMGRKELLPKNVREAAEEAERVTRKYNNYFLNIALAYGGRSEIVDAIKDIVNDVLEGRLKLEDINEEIVRKYLYVPNMPDPDIVIRTGGEVRISNFLLYQIAYSELFFVDVYFPEFRKIDFLRIIREFQKRERRFGR | soluble
9 | AHIVYDDVRDLKAIIQALLKLVDEALFDIKPEGIQLVAIDKAHISLIKIELPKEMFKEYDVPEEFKFGFNTQYMSKLLKAAKRKEEIIIDADSPEVVKLTLSGALNRVFNVNNIEVLPPEVPEVNLEFDIKATINASGLKNAIGEIAEVADTLLISGNEEKVVVKGEGENKVEVEFSKDTGSLADIEFNKESSSAYDVEYLNDIISLTKLSDYVKVAFADQKPMQLEFNMEGGGKVTYLLAPKLS | soluble
10 | AIAAYRGLHALSQPAYLEDFINSVSNLPQELRDKYGRMGELDALVQRLKNEADALVRELLRKPGSSDPDRGRDTTSLQQMGTKLEQLQAQCVKLNQEKLQLAETAYNTVDQHVRDLDTKLREYEAYLRREGQWPDDLQSLVVNTDHTKMASMKNAAAAAAAAHTAAAPATTARSTQKAPSKGQRKSGEPSTLHIMDDMPIDPNEPRYCYCQNVSYGQMVACESGDCPYEWFHFECVGLTEPPKGEWICPDCRARTGRVR | soluble
11 | AIAENSSKEDYKIQSFDLETQKLLKTALKDPGSVDLEKVSSVIVDQSLKDQVFSREAGRICYTIVQAEAKQTNGSVFRRNLLNRLQQEFKAREETRKRSTQEWVCLVSFICNIFDYLKVNNMPMVALVHPVYDCLFRLAQSDALKNEEEVDCLVLQLHRIGDQLEKMNVQLMDELFNLLRDGFLLQEDLSSMGRLLLLEILEFRAGGWKLSDTAQKYYYSEVTD | soluble
12 | AIAEPGSPAGAGAEAPAFYSERKLSRKQLKKLAKAEREYEEERRKELEAAQAVDTAQKRELARIESILRTHALRMEYVEPDGHCLFRALVRQLRPLIQSGLFDTYFPAADTETRSALLTWSTIPDEMEAVWLLRKTLASFIRRRGTEFFPFIVGELDPQGTLLDASDDPAERVAQYCARLEDGTLWGGQPELQAVALALRCRVFVFADPEILPNGMLVMGADDASTDTGAESVTALRVSFHKQFFSLGEHYHAVVPADDSRGDARDPRISAS | soluble
13 | AIAERSFVWLSCLDSDSCNLTFRLGEVESHACSPSLLWNLLTQYLPPGAGHILRTYNFPVLSCVSSCHLIGGKMPEN | soluble
14 | AIAKLTDSVLRSFRVAKVFRENSDKINCFDFSSNGETVISSSDDDSIVLYDCQEGKPKRTLYSKKYGVDLIRYTHAANTVVYSSNKIDDTIRYLSLHDNKYIRYFPGHNKRVVALSMSPVDDTFISGSLDKTIRLWDLRSPNCQGLMHLQGKPVCSFDPEGLIFAAGVNSEMVKLYDLRSFDKGPFATFKLQYERTCEWTGLKFSNDGKLILVSTNGGTLRVLDAFKGAVLHSFGGYNNSKGVILEAPFTPDSQFIMIGSEDGKIHVWNAESGMKVALLDGKHTGPVTCLQFNPKFMTFASACSNMAFWLPTIDD | soluble
15 | AIATLEKKEYGAPGFWPGSMIGRVHAFETPAPLTRAQLDRLRDEFFETRTEGHLEIWTAIRAASHAQEAGDDELAYAIITAVGILPAEVGPAGEGLGERIPFAEQPLDRLLGMICGCCFPAFTRYRTLERVYDQRGFLYETPKECIATPSNVLPDESTEASAR | soluble
16 | AIAYASETASTQGLPALELDPEELLAQVQLLRAAVEGSRRESRELVGALERERRLNLEMRQRFERQFAAVSDQLLQLNHLQKESEALLQSLQEQLNEAELQKNAAQRELACVQRQLSLARAEADAGKRVLTTIAEKEALLRKTSQANADLQQIVMHLQAELRNSELQPSTSNASEERLHEAEIPSLADRDAYQTLQQTIEKLSAERDMWYHECARAKEESLRLQQDAERLRGLLDEQQRVHTTTQTLLQDRHLLMRRIIAALAEKYLMEKLPNQHYTQEIDSSPFQARGGTSVQEAHKHERLRRARSF | soluble
17 | AIRVADLLQHITQMKCAEGYGFKEEYESFFEGQSAPWDSAKKDENRMKNRYGNIIAYDHSRVRLQTIEGDTNSDYINGNYIDGYHRPNHYIATQGPMQETIYDFWRMVWHENTASIIMVTNLVEVGRVKCCKYWPDDTEIYKDIKVTLIETELLAEYVIRTFAVEKRGVHEIREIRQFHFTGWPDHGVPYHATGLLGFVRQVKSKSPPSAGPLVVHCSAGAGRTGCFIVIDIMLDMAEREGVVDIYNCVRELRSRRVNMVQTEEQYVFIHDAILEACL | soluble
18 | AISGAKKYFYMQTPYFLPTEQILGAMQTAALAGVDIRLMLPEHADNRVTHLGSCSYLADVLRAGVKVYFYKKGFLHSKLMVSDDMLSTVGSTNLDFRSFEHNFEVNAFMYDMETALQMREIFLQDQRESTQIFLKSWEKRSSRQKAMESVVRLLAPLL | not soluble
19 | AKIDNAVLPEGSLVLVTGANGFVASHVVEQLLEHGYKVRGTARSASKLANLQKRWDAKYPGRFETAVVEDMLKQGAYDEVIKGAAGVAHIASVVSFSNKYDEVVTPAIGGTLNALRAAAATPSVKRFVLTSSTVSALIPKPNVEGIYLDEKSWNLESIDKAKTLPESDPQKSLWVYAASKTEAELAAWKFMDENKPHFTLNAVLPNYTIGTIFDPETQSGSTSGWMMSLFNGEVSPALALMPPQYYVSAVDIGLLHLGCLVLPQIERRRVYGTAGTFDWNTVLATFRKLYPSKTFPADFPDQGQDLSKFDTAPSLEILKSLGRPGWRSIEESIKDLVGSETA | soluble
20 | AKQAAQSTFNSFHEWAKQAEAMRNPSRMDIYKIYKQDAPHSHPMSDEQQEEFLHTLKALNGKNGIEVRTQDHDSVRNKKDRNLDKYIAESPDAKRFFYRIIPKHERREDKNQGRLTIGVQPQYATQLTRAMATLIGKESAITHGKVIGPACHGQMTDSAVLYINGDVAKAEKLGEKLKQMSGIPLDAFVEHTPLSMQSLSKGLSYAESILGDTRGHGMSRAEVISDALRMDGMPFLARLKLSLSANGYDPDNPALRNTK | soluble
21 | ALEGTEFARAQLSEAMTLASGLKTKVSDIFSQDGSCPANTAATAGIEKDTDINGKYVAKVTTGGTAAASGGCTIVATMKASDVATPLRGKTLTLTLGNADKGSYTWACTSNADNKYLPKTCQTATTTTP | soluble
22 | ALSAKLTLDKVDLKGKRVIMRVDFNVPMKNNQITNNQRIKAAIPSIKHCLDNGAKSVVLMSHLGRPDGIPMPDKYSLEPVADELKSLLNKDVIFLKDCVGPEVEQACANPDNGSIILLENLRFHVEEEGKGKDSSGKKISADPAKVEAFRASLSKLGDVYVNDAFGTAHRAHSSMVGVNLPQKASGFLMKKELDYFSKALEKPERPFLAILGGAKVKDKIQLIKNMLDKVNFMIIGGGMAYTFLKELKNMQIGASLFDEEGATIVKEIMEKAEKNGVKIVFPVDFVTGDKFDENAKVGQATIESGIPSGWMGLDCGPESIKINAQIVAQAKLIVWNGPIGVFEWDAFAKGTKALMDEVVKATSNGCVTIIGGGDTATCCAKWGTEDKVSHVSTGGGASLELLEGKILPGVEALSNM | soluble
23 | AMAKGVGVSNEKLDAVMRVVSEESGIALEELTDDSNFADMGIDSLSSMVIGSRFREDLGLDLGPEFSLFIDCTTVRALKDFMLGSGDAG | soluble
24 | AMEDELKILIGKMRYRSSFGQNALQHSKEVALLAGLIAEQLGGDKKLARRAGILHDIGKALTQELGRDHVNLGVEVCKRHKEDPVVINAIYAHHGHEEILSVECASVCAADALSAGRPGARRKSDEEYAKRMQALEEIALEFDGVEKAYAMESGRELRVIVKSNQ | not soluble
25 | AMGSATISRRGILVIRHGERVDQVFGKSWLQQCTTADGKYYRPDLNFPRSLPRRSNGIKDFENDPPLSSCGIFQARLAGEALLDSGVRVTAVFASPALRCVQTAKHILEELKLEKKLKIRVEPGIFEWMKWEASKATLTFLTLEELKEANFNVDLDYRPALPRCSLMPAESYDQYVERCAVSMGQIINTCPQDMGITLIVSHSSALDSCTRPLLGLPPRECGDFAQLVRKIPSLGMCFCEENREDGKWDLVNPPVKTLTHGANSVFNWRNWIS | soluble
